Assays:
ClpC2 = molecular target: T1, ClpC2 (Arabidopsis thaliana, UniProt Q9SXJ7); experiment: ATPase, inorganic phosphate release, Malachite green; assay type: biochemical; conditions: ClpC2 0.5 uM; basal activity without ClpT1
T1 construct: Hsp100 chaperones can assemble into hexamers
T1 sequence (Q9SXJ7 46-952): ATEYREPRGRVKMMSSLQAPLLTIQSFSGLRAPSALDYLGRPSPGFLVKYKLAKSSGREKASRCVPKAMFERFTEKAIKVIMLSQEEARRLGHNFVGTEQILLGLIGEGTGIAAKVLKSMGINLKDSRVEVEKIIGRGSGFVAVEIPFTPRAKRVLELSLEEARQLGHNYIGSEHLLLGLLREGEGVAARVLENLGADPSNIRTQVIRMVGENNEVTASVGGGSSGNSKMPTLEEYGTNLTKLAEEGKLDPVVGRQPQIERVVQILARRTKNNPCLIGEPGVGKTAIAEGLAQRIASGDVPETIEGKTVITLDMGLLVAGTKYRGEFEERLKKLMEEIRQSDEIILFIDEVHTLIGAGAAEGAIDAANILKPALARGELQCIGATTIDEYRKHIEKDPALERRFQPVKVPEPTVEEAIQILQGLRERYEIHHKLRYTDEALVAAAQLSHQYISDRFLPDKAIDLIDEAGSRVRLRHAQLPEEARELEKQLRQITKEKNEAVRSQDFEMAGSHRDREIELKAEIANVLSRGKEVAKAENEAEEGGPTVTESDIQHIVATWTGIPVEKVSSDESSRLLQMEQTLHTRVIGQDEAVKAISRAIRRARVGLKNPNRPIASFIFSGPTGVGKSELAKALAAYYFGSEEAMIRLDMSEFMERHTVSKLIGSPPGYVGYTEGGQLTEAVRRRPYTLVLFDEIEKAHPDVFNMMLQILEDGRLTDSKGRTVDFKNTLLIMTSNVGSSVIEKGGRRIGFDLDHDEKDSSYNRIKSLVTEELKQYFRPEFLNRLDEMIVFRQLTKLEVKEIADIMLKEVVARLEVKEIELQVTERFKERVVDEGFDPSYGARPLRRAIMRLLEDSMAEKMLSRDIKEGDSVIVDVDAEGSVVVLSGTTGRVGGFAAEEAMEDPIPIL

[1] = molecular target: ClpD (recombinant chloroplastic Hsp100 chaperone from Arabidopsis) (Arabidopsis thaliana) (UniProt P42762)
[2] = molecular target: ClpD (recombinant chloroplastic Hsp100 chaperone from Arabidopsis) (Arabidopsis thaliana) (UniProt P42762); remark: listed apart in the source
[3] = molecular target: ClpT1 (recombinant mature ClpT1 from Arabidopsis thaliana, His-tag removed) (Arabidopsis thaliana) (UniProt Q93WL3); experiment: SEC; 6-fold concentrated sample and 10-fold diluted sample of ClpT1 injected; data not shown
[4] = molecular target: ClpT1 (recombinant mature ClpT1 from Arabidopsis thaliana, His-tag removed) (Arabidopsis thaliana) (UniProt Q93WL3); experiment: SEC; the small dimer peak of the first run collected and reinjected into the column (second SEC step)
[5] = molecular target: ClpT1 (recombinant mature ClpT1 from Arabidopsis thaliana, His-tag removed) (Arabidopsis thaliana) (UniProt Q93WL3); experiment: SEC; purified ClpT1 on Superdex 75 10/300 GL, 0.5 mL/min, 50 mM Tris-HCl pH 8.0, 100 mM NaCl; monomer and dimer peaks integrated
[6] = molecular target: ClpT1 (recombinant mature ClpT1 from Arabidopsis thaliana, His-tag removed) (Arabidopsis thaliana) (UniProt Q93WL3); experiment: cross-linking; EGS at 10, 20, 30 and 50-fold molar excess, 25 μM protein, 50 mM Hepes pH 7.5, 100 mM NaCl, 30 min at room temperature; SDS-PAGE with Coomassie staining
[7] = molecular target: ClpC2 (recombinant chloroplastic Hsp100 chaperone from Arabidopsis) (Arabidopsis thaliana) (UniProt Q9SXJ7); experiment: ultrafiltration (retention by a 50 kDa cut-off membrane); ClpC2 or ClpD with ClpT1 or GFP, 1.3 μM each, 50 mM Tris-HCl pH 8.0, 150 mM NaCl, 10 mM MgCl2, 5 mM ATP, 10 min at 25°C; Vivaspin 500, 30 s at 11,500 x g; permeate and retentate on SDS-PAGE, densitometry
[8] = molecular target: ClpD (recombinant chloroplastic Hsp100 chaperone from Arabidopsis) (Arabidopsis thaliana) (UniProt P42762); experiment: as above
[9] = molecular target: glutathione S-transferase; experiment: cross-linking; EGS at 10, 20, 30 and 50-fold molar excess, 25 μM protein, 50 mM Hepes pH 7.5, 100 mM NaCl, 30 min at room temperature; SDS-PAGE with Coomassie staining
[10] = substrate: Nc1ncnc2c1ncn2[C@@H]1O[C@H](COP(=O)(O)OP(=O)(O)OP(=O)(O)O)[C@@H](O)[C@H]1O; experiment: ATPase, inorganic phosphate release, Malachite green; Michaelis-Menten fit; assay type: biochemical, Arabidopsis thaliana; conditions: without ClpT1; ClpD 0.5 uM; ATP varied 0-12 mM, complete saturation not reached (extrapolated)

Molecule: Nc1ncnc2c1ncn2[C@@H]1O[C@H](COP(=O)(O)OP(=O)(O)OP(=O)(O)O)[C@@H](O)[C@H]1O [ATP]
- specific activity (ClpC2): Both chaperones have a basal ATPase activity

Molecule: ClpT1 (recombinant mature ClpT1 from Arabidopsis thaliana, His-tag removed) (from UniProt Q93WL3 65-238) (natural protein)
- ATPase activity of ClpD (Malachite green), ClpT1:ClpD molar ratios from approximately 0.15:1 to 6:1; activation over the basal activity, back to the basal value at 6:1 [1]: > 50%
- Vmax of the ClpD ATPase in the presence of ClpT1 at a 1:1 molar ratio (0.19 nmol/(min × μg protein) without ClpT1) (nmol/(min × μg protein)) [2]: 0.43
- percent dimer compared to the monomer species [3]: < 5%
- percent of the total protein in the dimer peak after reinjection of the dimer peak [4]: > 92%
- percent of the total protein in the dimer peak [5]: < 5%
- stoichiometry N [5]: 2
- percent of the total protein cross-linked as dimer at the highest EGS concentration [6]: 60%
- stoichiometry N [6]: 2
- percent of ClpT1 kept in the retentate [7]: > 75%
- percent of ClpT1 kept in the retentate [8]: > 75%

Molecule: glutathione S-transferase (enzyme)
- stoichiometry N [9]: 2

B1: ClpD (Arabidopsis thaliana) (protein)
chain: AIIFSQKEAKSLGKDMVYTQHLLLGLIAEDRDPQGFLGSGITIDKAREAVWSIWDEANSDSKQEEASSTSYSKSTDMPFSISTKRVFEAAVEYSRTMDCQYIAPEHIAVGLFTVDDGSAGRVLKRLGANMNLLTAAALTRLKGEIAKDGREPSSSSKGSFESPPSGRIAGSGPGGKKAKNVLEQFCVDLTARASEGLIDPVIGREKEVQRVIQILCRRTKNNPILLGEAGVGKTAIAEGLAISIAEASAPGFLLTKRIMSLDIGLLMAGAKERGELEARVTALISEVKKSGKVILFIDEVHTLIGSGTVGRGNKGSGLDIANLLKPSLGRGELQCIASTTLDEFRSQFEKDKALARRFQPVLINEPSEEDAVKILLGLREKYEAHHNCKYTMEAIDAAVYLSSRYIADRFLPDKAIDLIDEAGSRARIEAFRKKKEDAICILSKPPNDYWQEIKTVQAMHEVVLSSRQKQDDGDAISDESGELVEESSLPPAAGDDEPILVGPDDIAAVASVWSGIPVQQITADERMLLMSLEDQLRGRVVGQDEAVAAISRAVKRSRVGLKDPDRPIAAMLFCGPTGVGKTELTKALAANYFGSEESMLRLDMSEYMERHTVSKLIGSPPGYVGFEEGGMLTEAIRRRPFTVVLFDEIEKAHPDIFNILLQLFEDGHLTDSQGRRVSFKNALIIMTSNVGSLAIAKGRHGSIGFILDDDEEAASYTGMKALVVEELKNYFRPELLNRIDEIVIFRQLEKAQMMEILNLMLQDLKSRLVALGVGLEVSEPVKELICKQGYDPAYGARPLRRTVTEIVEDPLSEAFLAGSFKPGDTAFVVLDDTGNPSVRTKPDSSTIRVTDKTSIA
notes: Hsp100 chaperones can assemble into hexamers
- Km [10]: 19.1 mM
